Data set [1] can be described thus: Measurement of plasma PEPD^G278D concentration by ELISA. Format: in vivo, mouse. The settings on record: mice bearing SW48 tumors and HCT116 tumors; 24 h after final PEPD^G278D treatment (4 mg/kg ip with EP). How it is done: Plasma PEPD^G278D concentration was measured by ELISA as previously reported. Briefly, 96-well ELISA plates were coated with 100 μl/well of a PEPD antibody (mouse monoclonal, against amino acids 101-305, sc-390042) overnight at 4° C. The plates were then washed three times with PBST and incubated with 200 μl/well of a blocking buffer for at least 2 h at RT. The plates were washed again with PBST and incubated with 100 μl/well of a PEPD standard or a sample, which were appropriately diluted, for 2 h at RT. After another round of wash with PBST, each well was incubated with 100 μl of a detection antibody (an anti-PEPD rabbit polyclonal, ab-86507) for 2 h at RT. After another round of wash with PBST, 100 μl of a secondary antibody-HRP conjugate was added to each well, followed by 1 h incubation at RT. The plates were washed again with PBST three times, and each well was then incubated with 100 μl of a HRP substrate solution. After adequate color development, 100 μl of stop solution was added to each well, and absorbance at 450 nm was recorded by a Synergy 2 Multi-Mode Microplate Reader. Purified recombinant PEPD^G278D was used as a standard.
For orientation: In an ELISA, binding on a coated surface is turned into a signal by an enzyme label.

The next data set relates to HCT116 cells. In words: MTT cell proliferation assay. In kind it is cell-based, human. The settings on record: 24, 48 or 72 h, PEPD^G278D 5-250 nM, cetuximab 2.75-275 nM, panitumumab 2.77-277 nM. How it is done: (§1) Cells were grown in 96-well plates. […] The cells were then washed with PBS and mixed with dimethyl sulfoxide (150 μl per well), and cell density was determined by measuring the reduction of MTT to formazan spectroscopically at 570 nm using a Synergy 2 Multi-Mode Microplate Reader (BioTek). In experiments involving siRNA transfection, 2×10^3 HCT116 cells or 6×10^3 HT29 cells were seeded to each well of 96-well plates overnight and then transfected 25 nM siRNA (scramble siRNA, EGFR siRNA or HER2 siRNA) as described above, followed by MTT assay.
(In general: Formazan colour is commonly taken as a measure of viable cells.)

In another data set the test system is HT29 cells. In words: MTT cell proliferation assay. Format: cell-based, human. The settings on record: 24, 48 or 72 h, PEPD^G278D 5-250 nM, cetuximab 2.75-275 nM, panitumumab 2.77-277 nM. How it is done: as §1
The next data set concerns SW48 cells. In words: MTT cell proliferation assay. Format: cell-based, human. How it is done: as §1
The next data set concerns SW620 cells. Put plainly: MTT cell proliferation assay. Format: cell-based, human. The settings on record: SW620 cells (no EGFR, no HER2); 24, 48 or 72 h. How it is done:
as §1

Data set [2] concerns HER3, MET, IGF1R, SRC, AKT, ERK, MEK. In words: Western blotting of whole cell lysates: other RTKs and downstream signaling proteins. In kind it is cell-based, human. The settings on record: 25 nM, 48 h. How it is done: To prepare whole cell lysates, cells were washed with PBS twice, mixed with 1× cell lysis buffer from Cell Signaling Technology supplemented with 2 mM PMSF and a protease inhibitor cocktail from Roche Applied Science, placed on ice for 10 min, sonicated at 0-4° C. to enhance cell lysis using a Branson Model 450 sonifier, and finally centrifuged at 13,000 g for 10 min at 4° C., and the supernatant fraction is collected as whole cell lysate. Tumor and samples were mixed with RIPA buffer (25 mM Tris-HCl, PH7.6, 150 mM NaCl, 1% Nonidet P-40, 1% sodium deoxycholate, and 0.1% SDS), which was supplemented with 2 mM PMSF, the protease inhibitor cocktail mentioned above, phosphatase inhibitor cocktail 2 and phosphatase inhibitor cocktail 3 from Sigma-Aldrich at 14.3 μl buffer per mg tissue, and homogenized in a Dounce homogenizer. The homogenates were cleared by centrifugation at 13,000 g for 15 min at 4° C.
Protein concentrations in all samples were measured using the BCA Assay Kit. For Western blotting, each sample was mixed with 4× loading dye, heated for 5 min at 95° C., and resolved by SDS-PAGE (8-12.5%). Proteins were transferred to polyvinylidene fluoride membrane, probed with specific antibodies, and detected using either Luminata Classico (Millipore) or Luminata Cresendo (Millipore). For IP, cell lysates (0.5 mg protein/sample) were incubated with a desired antibody overnight at 4° C., followed by incubation of 500 μl sample with 30 μl G-Sepharose beads (2 mg/ml) for 1 h at RT. The beads were washed three times with IP buffer, suspended in 2× SDS loading buffer, boiled for 5 min, and analyzed by Western blotting.
(A western blot detects proteins with antibodies after separation by electrophoresis.)

B1: PEPD^G278D: recombinant and enzymatically inactive mutant of human peptidase D (PEPD), with replacement of glycine 278 by aspartic acid (protein)
chain: AAATGPSFWLGNETLKVPLALFALNRQRLCERLRKNPAVQAGSIVVLQGGEETQRYCTDTGVLFLQESFFHWAFGVTEPGCYGVIDVDTGKSTLFVPRLPASHATWMGKIHSKEHFKEKYAVDDVQYVDEIASVLTSQKPSVLLTLRGVNTDSGSVCREASFDGISKFEVNNTILHPEIVESRVFKTDMELEVLRYTNKISSEAHREVMKAVKVGMKEYGLESLFEHYCYSRGGMRHSSYTCICGSGENSAVLHYGHAGAPNDRTIQNGDMCLFDMDGEYYSVASDITCSFPRNGKFTADQKAVYEAVLLSSRAVMGAMKPGDWWPDIDRLADRIHLEELAHMGILSGSVDAMVQAHLGAVFMPHGLGHFLGIDVHDVGGYPEGVERIDEPGLRSLRTARHLQPGMVLTVEPGIYFIDHLLDEALADPARASFLNREVLQRFRGFGGVRIEEDVVVIDSGIELLTCVPRTVEEIEACMAGCDKAFTPFSGPK
modifications: left off: small tags and cut ends
With B1, the “plasma concentrations of PEPD^G278D” value in data set [1] was “high and similar”. The “cell growth measured by MTT assay” value was “strongly inhibited the growth” in the data set on HCT116 cells; “strongly inhibited the growth” with HT29 cells; “strongly inhibited the growth” with SW48 cells (24, 48 or 72 h, PEPD^G278D 5-250 nM, cetuximab 2.75-275 nM, panitumumab 2.77-277 nM); “ineffective” in the data set on SW620 cells. Moreover, the “growth-inhibitory potency compared with the EGFR MABs” value in the data set on SW48 cells is listed as “more potent”. The “expression of other signaling proteins (HER3, MET, IGF1R, SRC, AKT, ERK)” value in data set [2] (HCT116, HT29 and SW48 cells) is recorded as “had no effect on the expression”. For the same molecule, the “phosphorylation of other signaling proteins (HER3, MET, IGF1R, SRC, AKT, ERK)” value in data set [2] (HCT116, HT29 and SW48 cells) is on record as “markedly decreased their phosphorylation”. In addition, the MEK phosphorylation entry in data set [2] (HCT116 and HT29 cells) is reported as “markedly decreased MEK phosphorylation”. Moreover, the “phosphorylation or expression of HER3, MET, IGF1R, SRC, AKT, and ERK” value in data set [2] (SW620 cells that lack EGFR and HER2) is “had no effect”.

Source of the values: patent US20250009852A1, “DEPLETING EGFR AND HER2 OVERCOMES RESISTANCE TO EGFR INHIBITORS IN COLORECTAL CANCER” (Health Research, Inc., priority 2021, published 2025).
